Target: microtubules polymerized from porcine tubulin (porcine, UniProt P02550 1-451; Q767L7 1-444, Alexa Fluor 647 NHS ester on 20% of the tubulin in fluorescently labeled microtubules | Alexa Fluor 647 NHS ester on 20% of the tubulin in fluorescently labeled microtubules)
Test: single-molecule TIRF microscopy, two-colour co-movement on immobilised microtubules; KIF5B construct and 175 nM TRAK1 construct pre-incubated 10 min on ice, flushed onto bare immobilised microtubules in motility buffer with 1 mM Mg-ATP; room temperature; for the complexes traces of the mCherry-TRAK1 channel analysed
Settings: both partners purified

Row | median interaction time with microtubules [s] | Binder
1 | 5.33 | KIF5B-GFP-mCherry-TRAK1∆ complex (complex, KIF5B, kinesin-1 heavy chain, human, amino acids 1-963; as m1; TRAK1, stop codon after amino acid 635; as m6; also called truncated KIF5B-GFP-mCherry-TRAK1∆ complex; source: the two purified proteins (m1 from SF9, m6 from HEK293T) pre-incubated 10 min on ice; not shown: GFP, C-terminal, kept; 6xHis, C-terminal, cleaved; mCherry, N-terminal, kept; TwinStrep-FLAG-Halo, N-terminal, cleaved) chain 1: MADLAECNIKVMCRFRPLNESEVNRGDKYIAKFQGEDTVVIASKPYAFDRVFQSSTSQEQVYNDCAKKIVKDVLEGYNGTIFAYGQTSSGKTHTMEGKLHDPEGMGIIPRIVQDIFNYIYSMDENLEFHIKVSYFEIYLDKIRDLLDVSKTNLSVHEDKNRVPYVKGCTERFVCSPDEVMDTIDEGKSNRHVAVTNMNEHSSRSHSIFLINVKQENTQTEQKLSGKLYLVDLAGSEKVSKTGAEGAVLDEAKNINKSLSALGNVISALAEGSTYVPYRDSKMTRILQDSLGGNCRTTIVICCSPSSYNESETKSTLLFGQRAKTIKNTVCVNVELTAEQWKKKYEKEKEKNKILRNTIQWLENELNRWRNGETVPIDEQFDKEKANLEAFTVDKDITLTNDKPATAIGVIGNFTDAERRKCEEEIAKLYKQLDDKDEEINQQSQLVEKLKTQMLDQEELLASTRRDQDNMQAELNRLQAENDASKEEVKEVLQALEELAVNYDQKSQEVEDKTKEYELLSDELNQKSATLASIDAELQKLKEMTNHQKKRAAEMMASLLKDLAEIGIAVGNNDVKQPEGTGMIDEEFTVARLYISKMKSEVKTMVKRCKQLESTQTESNKKMEENEKELAACQLRISQHEAKIKSLTEYLQNVEQKKRQLEESVDALSEELVQLRAQEKVHEMEKEHLNKVQTANEVKQAVEQQIQSHRETHQKQISSLRDEVEAKAKLITDLQDQNQKMMLEQERLRVEHEKLKATDQEKSRKLHELTVMQDRREQARQDLKGLEETVAKELQTLHNLRKLFVQDLATRVKKSAEIDSDDTGGSAAQKQKISFLENNLEQLTKVHKQLVRDNADLRCELPKLEKRLRATAERVKALESALKEAKENASRDRKRYQQEVDRIKEAVRSKNMARRGHSAQIAKPIRPGQHPAASPTHPSAIRGGGAFVQNSQPVAVRGGGGKQV chain 2: MALVFQFGQPVRAQPLPGLCHGKLIRTNACDVCNSTDLPEVEIISLLEEQLPHYKLRADTIYGYDHDDWLHTPLISPDANIDLTTEQIEETLKYFLLCAERVGQMTKTYNDIDAVTRLLEEKERDLELAARIGQSLLKKNKTLTERNELLEEQVEHIREEVSQLRHELSMKDELLQFYTSAAEESEPESVCSTPLKRNESSSSVQNYFHLDSLQKKLKDLEEENVVLRSEASQLKTETITYEEKEQQLVNDCVKELRDANVQIASISEELAKKTEDAARQQEEITHLLSQIVDLQKKAKACAVENEELVQHLGAAKDAQRQLTAELRELEDKYAECMEMLHEAQEELKNLRNKTMPNTTSRRYHSLGLFPMDSLAAEIEGTMRKELQLEEAESPDITHQKRVFETVRNINQVVKQRSLTPSPMNIPGSNQSSAMNSLLSSCVSTPRSSFYGSDIGNVVLDNKTNSIILETEAADLGNDERSKKPGTPGTPGSHDLETALRRLSLRRENYLSERRFFEEEQERKLQELAEKGELRSGSLTPTESIMSLGTHSRFSEFTGFSGMSFSSRSYLPEKLQIVKPLEGSATLHHWQQLAQPHLGGILDPRPGVVTKGFRTLDVDLDEVYCLNDFEEDDTGD
2 | 2.22 | KIF5B∆-GFP in complex with mCherry-TRAK1∆ (complex, KIF5B, kinesin-1 heavy chain, human, amino acids 1-905; as m2; TRAK1, stop codon after amino acid 635; as m6; source: the two purified proteins (m2 from SF9, m6 from HEK293T) pre-incubated 10 min on ice; not shown: GFP, C-terminal, kept; 6xHis, C-terminal, cleaved; mCherry, N-terminal, kept; TwinStrep-FLAG-Halo, N-terminal, cleaved) chain 1: MADLAECNIKVMCRFRPLNESEVNRGDKYIAKFQGEDTVVIASKPYAFDRVFQSSTSQEQVYNDCAKKIVKDVLEGYNGTIFAYGQTSSGKTHTMEGKLHDPEGMGIIPRIVQDIFNYIYSMDENLEFHIKVSYFEIYLDKIRDLLDVSKTNLSVHEDKNRVPYVKGCTERFVCSPDEVMDTIDEGKSNRHVAVTNMNEHSSRSHSIFLINVKQENTQTEQKLSGKLYLVDLAGSEKVSKTGAEGAVLDEAKNINKSLSALGNVISALAEGSTYVPYRDSKMTRILQDSLGGNCRTTIVICCSPSSYNESETKSTLLFGQRAKTIKNTVCVNVELTAEQWKKKYEKEKEKNKILRNTIQWLENELNRWRNGETVPIDEQFDKEKANLEAFTVDKDITLTNDKPATAIGVIGNFTDAERRKCEEEIAKLYKQLDDKDEEINQQSQLVEKLKTQMLDQEELLASTRRDQDNMQAELNRLQAENDASKEEVKEVLQALEELAVNYDQKSQEVEDKTKEYELLSDELNQKSATLASIDAELQKLKEMTNHQKKRAAEMMASLLKDLAEIGIAVGNNDVKQPEGTGMIDEEFTVARLYISKMKSEVKTMVKRCKQLESTQTESNKKMEENEKELAACQLRISQHEAKIKSLTEYLQNVEQKKRQLEESVDALSEELVQLRAQEKVHEMEKEHLNKVQTANEVKQAVEQQIQSHRETHQKQISSLRDEVEAKAKLITDLQDQNQKMMLEQERLRVEHEKLKATDQEKSRKLHELTVMQDRREQARQDLKGLEETVAKELQTLHNLRKLFVQDLATRVKKSAEIDSDDTGGSAAQKQKISFLENNLEQLTKVHKQLVRDNADLRCELPKLEKRLRATAERVKALESALKEAKENASRDRKRYQQEVDRIKEA chain 2: MALVFQFGQPVRAQPLPGLCHGKLIRTNACDVCNSTDLPEVEIISLLEEQLPHYKLRADTIYGYDHDDWLHTPLISPDANIDLTTEQIEETLKYFLLCAERVGQMTKTYNDIDAVTRLLEEKERDLELAARIGQSLLKKNKTLTERNELLEEQVEHIREEVSQLRHELSMKDELLQFYTSAAEESEPESVCSTPLKRNESSSSVQNYFHLDSLQKKLKDLEEENVVLRSEASQLKTETITYEEKEQQLVNDCVKELRDANVQIASISEELAKKTEDAARQQEEITHLLSQIVDLQKKAKACAVENEELVQHLGAAKDAQRQLTAELRELEDKYAECMEMLHEAQEELKNLRNKTMPNTTSRRYHSLGLFPMDSLAAEIEGTMRKELQLEEAESPDITHQKRVFETVRNINQVVKQRSLTPSPMNIPGSNQSSAMNSLLSSCVSTPRSSFYGSDIGNVVLDNKTNSIILETEAADLGNDERSKKPGTPGTPGSHDLETALRRLSLRRENYLSERRFFEEEQERKLQELAEKGELRSGSLTPTESIMSLGTHSRFSEFTGFSGMSFSSRSYLPEKLQIVKPLEGSATLHHWQQLAQPHLGGILDPRPGVVTKGFRTLDVDLDEVYCLNDFEEDDTGD
3 | 12.2 | KIF5B∆-GFP in complex with mCherry-TRAK1 (complex, KIF5B, kinesin-1 heavy chain, human, amino acids 1-905; as m2; TRAK1, cDNA KIAA1042; as m5; also called KIF5B∆-GFP-mCherry-TRAK1 complex; KIF5B∆-TRAK1 transport complex; source: the two purified proteins (m2 from SF9, m5 from HEK293T) pre-incubated 10 min on ice; not shown: GFP, C-terminal, kept; 6xHis, C-terminal, cleaved; mCherry, N-terminal, kept; TwinStrep-FLAG-Halo, N-terminal, cleaved; …) chain 1: MADLAECNIKVMCRFRPLNESEVNRGDKYIAKFQGEDTVVIASKPYAFDRVFQSSTSQEQVYNDCAKKIVKDVLEGYNGTIFAYGQTSSGKTHTMEGKLHDPEGMGIIPRIVQDIFNYIYSMDENLEFHIKVSYFEIYLDKIRDLLDVSKTNLSVHEDKNRVPYVKGCTERFVCSPDEVMDTIDEGKSNRHVAVTNMNEHSSRSHSIFLINVKQENTQTEQKLSGKLYLVDLAGSEKVSKTGAEGAVLDEAKNINKSLSALGNVISALAEGSTYVPYRDSKMTRILQDSLGGNCRTTIVICCSPSSYNESETKSTLLFGQRAKTIKNTVCVNVELTAEQWKKKYEKEKEKNKILRNTIQWLENELNRWRNGETVPIDEQFDKEKANLEAFTVDKDITLTNDKPATAIGVIGNFTDAERRKCEEEIAKLYKQLDDKDEEINQQSQLVEKLKTQMLDQEELLASTRRDQDNMQAELNRLQAENDASKEEVKEVLQALEELAVNYDQKSQEVEDKTKEYELLSDELNQKSATLASIDAELQKLKEMTNHQKKRAAEMMASLLKDLAEIGIAVGNNDVKQPEGTGMIDEEFTVARLYISKMKSEVKTMVKRCKQLESTQTESNKKMEENEKELAACQLRISQHEAKIKSLTEYLQNVEQKKRQLEESVDALSEELVQLRAQEKVHEMEKEHLNKVQTANEVKQAVEQQIQSHRETHQKQISSLRDEVEAKAKLITDLQDQNQKMMLEQERLRVEHEKLKATDQEKSRKLHELTVMQDRREQARQDLKGLEETVAKELQTLHNLRKLFVQDLATRVKKSAEIDSDDTGGSAAQKQKISFLENNLEQLTKVHKQLVRDNADLRCELPKLEKRLRATAERVKALESALKEAKENASRDRKRYQQEVDRIKEA chain 2: MALVFQFGQPVRAQPLPGLCHGKLIRTNACDVCNSTDLPEVEIISLLEEQLPHYKLRADTIYGYDHDDWLHTPLISPDANIDLTTEQIEETLKYFLLCAERVGQMTKTYNDIDAVTRLLEEKERDLELAARIGQSLLKKNKTLTERNELLEEQVEHIREEVSQLRHELSMKDELLQFYTSAAEESEPESVCSTPLKRNESSSSVQNYFHLDSLQKKLKDLEEENVVLRSEASQLKTETITYEEKEQQLVNDCVKELRDANVQIASISEELAKKTEDAARQQEEITHLLSQIVDLQKKAKACAVENEELVQHLGAAKDAQRQLTAELRELEDKYAECMEMLHEAQEELKNLRNKTMPNTTSRRYHSLGLFPMDSLAAEIEGTMRKELQLEEAESPDITHQKRVFETVRNINQVVKQRSLTPSPMNIPGSNQSSAMNSLLSSCVSTPRSSFYGSDIGNVVLDNKTNSIILETEAADLGNDERSKKPGTPGTPGSHDLETALRRLSLRRENYLSERRFFEEEQERKLQELAEKGELRSGSLTPTESIMSLGTHSRFSEFTGFSGMSFSSRSYLPEKLQIVKPLEGSATLHHWQQLAQPHLGGILDPRPGVVTKGFRTLDVDLDEVYCLNDFEEDDTGDHISLPRLATSTPVQHPETSAHHPGKCMSQTNSTFTFTTCRILHPSDELTRVTPSLNSAPTPACGSTSHLKSTPVATPCTPRRLSLAESFTNTRESTTTMSTSLGLVWLLKERGISAAVYDPQSWDRAGRGSLLHSYTPKMAVIPSTPPNSPMQTPTSSPPSFEFKCTSPPYDNFLASKPASSILREVREKNVRSSESQTDVSVSNLNLVDKVRRFGVAKVVNSGRAHVPTLTEEQGPLLCGPPGPAPALVPRGLVPEGLPLRCPTVTSAIGGLQLNSGIRRNRSFPTMVGSSMQMKAPVTLTSGILMGAKLSKQTSLR

— article PMC7305210, “Mitochondria-adaptor TRAK1 promotes kinesin-1 driven transport in crowded environments” (Nature Communications, 2020)
